{"source": "patent US20100015139A1", "key": {"[1]": {"target": "Ba protein (Ba fragment of factor B) (human) (UniProt P00751)", "sequence (P00751 other isoform, or with tags, fused parts or gaps limits assumed)": "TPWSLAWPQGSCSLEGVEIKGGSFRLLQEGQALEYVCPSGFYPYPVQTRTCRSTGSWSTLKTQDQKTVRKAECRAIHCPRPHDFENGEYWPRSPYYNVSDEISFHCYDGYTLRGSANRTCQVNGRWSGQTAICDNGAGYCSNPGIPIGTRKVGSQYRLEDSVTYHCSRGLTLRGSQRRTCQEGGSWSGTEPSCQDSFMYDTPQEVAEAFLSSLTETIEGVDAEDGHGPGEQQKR", "test": "ELISA; antibody titrated on Ba-coated wells"}, "[2]": {"target": "human factor B (human) (UniProt P00751)", "sequence (P00751 other isoform, or with tags, fused parts or gaps limits assumed)": "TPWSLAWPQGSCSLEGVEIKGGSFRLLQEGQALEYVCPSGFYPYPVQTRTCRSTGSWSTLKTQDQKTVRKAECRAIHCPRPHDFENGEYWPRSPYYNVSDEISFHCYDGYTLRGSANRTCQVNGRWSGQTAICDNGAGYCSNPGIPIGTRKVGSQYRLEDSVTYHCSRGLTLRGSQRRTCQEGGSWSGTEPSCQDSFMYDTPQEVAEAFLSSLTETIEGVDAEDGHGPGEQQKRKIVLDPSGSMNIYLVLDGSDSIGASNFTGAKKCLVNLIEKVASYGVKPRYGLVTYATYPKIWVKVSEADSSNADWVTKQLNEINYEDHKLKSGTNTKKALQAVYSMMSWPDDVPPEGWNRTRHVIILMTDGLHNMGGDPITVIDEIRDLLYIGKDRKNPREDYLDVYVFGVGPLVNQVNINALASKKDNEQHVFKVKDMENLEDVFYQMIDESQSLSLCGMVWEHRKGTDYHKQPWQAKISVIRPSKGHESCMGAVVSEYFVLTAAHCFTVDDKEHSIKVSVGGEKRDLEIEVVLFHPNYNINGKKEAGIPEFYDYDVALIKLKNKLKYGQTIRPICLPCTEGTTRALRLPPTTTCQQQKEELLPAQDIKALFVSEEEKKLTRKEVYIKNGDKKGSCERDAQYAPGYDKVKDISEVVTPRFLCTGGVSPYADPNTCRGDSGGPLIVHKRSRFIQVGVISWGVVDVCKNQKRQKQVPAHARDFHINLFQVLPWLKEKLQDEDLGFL", "test": "competition ELISA; Anti-Ba varied, factor B binding to properdin-bound C3b on plates"}, "[3]": {"target": "human factor B (human) (UniProt P00751)", "test": "competition ELISA; Anti-Ba varied, factor B binding to C3b-coated plates"}, "[4]": {"target": "human factor B (human) (UniProt P00751)", "test": "cell-based or functional assay"}, "[5]": {"target": "human factor B (human) (UniProt P00751)", "test": "competition ELISA; Anti-Ba varied, factor B binding to C3b or properdin-bound C3b; range told for both formats"}}, "data": [{"substance": "anti-factor Ba monoclonal antibody (Quidel A225, murine)", "values": [{"measurement": "Kd", "setting": "[1]", "result": 9.65, "unit": "nM"}, {"measurement": "IC50", "setting": "[2]", "result": 234, "unit": "nM"}, {"measurement": "IC50", "setting": "[3]", "result": 556, "unit": "nM"}, {"measurement": "Inhibition of C5b-9 formation in normal human serum on LPS coated plates (AP dependent C3-convertase formation)", "setting": "[4]", "result": 527, "unit": "nM"}, {"measurement": "Inhibition of alternative pathway-dependent hemolysis of rabbit erythrocytes in 10% normal human serum", "setting": "[4]", "result": 125, "unit": "µg/mL"}, {"measurement": "IC50", "setting": "[5]", "result": "200 to 500", "unit": "nM"}]}]}
